First the molecules themselves.
B1: antibody PSf42.4 (antibody, V domains shown)
VH: EVKLQQSGAELVKPGASVKLSCTASGFSIRDTYMHWVRQRPEQGLEWITGIDPENGNSKYAPRFQDKATIIADTSSNTVHLQLDTLTSEDTAVYYCTRELAYWGQGTTVTVS
VL: DILMTQSPLTLSVIIGQPASFSCKSSHSLLHRDGRTYLNWLLQRPGQSPQRLIYLVSKLDSGVPDRFTGSGSGTDFTLKISRVEAEDLGVYYCWQGTHFPRTFGGGTKLEIKR
B2: antibody PSf42.1 (antibody, V domains shown)
VH: EVQLEESGAEFVRPGAAVKLSCTVSGLNIKDSYLHWVKQRPEQGLEWIGGIDPANGDVEYDPKFQGKAAITADTSSNTAYLRLSSLTSEDTAVYYCAPFPYWGAGTTVTVS
VL: DILMTQSPLTLSVIIGQPASFSCKSSHSLLHRDGRTYLNWLLQRPGQSPQRLIYLVSKLDSGVPDRFTGSGSGTDFTLKISRVEAEDLGVYYCWQGTHFPRTFGGGTKLEIKR
B3: antibody PSf34.1 (antibody, V domains shown)
VH: EVQLEESGAELVKPGASVKLSCTASGFYIKDTYIHWVKQRPEEVLEWIGGIDPADGDTRYDPKFQGKATITADTSSNSAYLHLTSLTSEDTAVYFCARELAYWGAGTTVTVS
VL: not shown
notes: also called mAb PSf34.1
B4: antibody PSf42.3 (antibody, V domains shown)
VH: EVQLQQSGAELAKPGASVKLSCTGSGFNIKDTYMHWVKQRPEQGLEWIGGIDPETGNTKFDPRFQDKATITSDTSSNTVLLQLSSLTSEDTAVYYCANLGRPFAHWGQGTTVTVS
VL: HSADPVSISCKSSQSLLHRDGKTYLNWVFQRPGQSPQRLIYLVSLVDSGVPDRFTGSGSGTDFTLKINRVEAEDLGVYYCWQGTHFPRTFGGGTKLEIKR
B5: antibody PSf47.1 (antibody, V domains shown)
VH: EVKLQESGPDLVKPGASVKVSCKASGYTFTVYVIHWVIQKPGQGLEWIGYINPYNDGAEYNENFKGKATLTSDKSSSTAYMELSSLTSEDSAVYYCTRGENYYTSRYGFFDVWGQGTTVTVS
VL: DILMPQSPSSLAVSAGEKVTMSCKSSQSLLNSRTRKNYLAWYQQKLGQSPKLLIYWASTRESGVPDRFTGSGSGTDFTLTISSVQAEDLAVYYCKQSYNFITFGAGTKLELKR
notes: also called mAb PSf47.1

For five molecules, Bmax and Kd results are on record in patent US20110189093A1 (PROSCAN RX PHARMA, published 2011).

What is called Kd is the equilibrium constant for the complex coming apart. High values mean a looser complex, low ones a tighter complex.

T1 sequence (Q04609 whole entry): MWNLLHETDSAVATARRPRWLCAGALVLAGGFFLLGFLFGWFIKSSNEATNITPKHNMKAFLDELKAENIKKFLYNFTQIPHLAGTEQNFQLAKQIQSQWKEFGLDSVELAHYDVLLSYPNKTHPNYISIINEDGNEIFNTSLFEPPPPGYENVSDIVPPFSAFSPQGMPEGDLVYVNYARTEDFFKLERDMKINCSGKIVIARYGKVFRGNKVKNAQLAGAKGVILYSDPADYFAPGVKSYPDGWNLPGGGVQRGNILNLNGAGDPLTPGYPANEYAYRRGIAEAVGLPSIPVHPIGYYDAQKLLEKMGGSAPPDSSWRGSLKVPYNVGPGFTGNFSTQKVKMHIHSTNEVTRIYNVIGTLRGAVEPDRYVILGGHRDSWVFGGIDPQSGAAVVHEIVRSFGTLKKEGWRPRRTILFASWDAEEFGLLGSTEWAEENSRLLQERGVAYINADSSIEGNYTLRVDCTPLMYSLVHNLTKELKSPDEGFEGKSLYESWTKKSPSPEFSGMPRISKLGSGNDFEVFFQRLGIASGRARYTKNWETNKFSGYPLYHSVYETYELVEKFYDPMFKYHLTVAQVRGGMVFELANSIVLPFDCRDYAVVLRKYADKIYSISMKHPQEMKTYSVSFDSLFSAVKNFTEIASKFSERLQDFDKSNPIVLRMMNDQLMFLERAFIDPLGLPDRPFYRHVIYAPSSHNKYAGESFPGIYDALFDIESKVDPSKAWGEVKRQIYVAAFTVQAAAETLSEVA

This experiment concerns the target T1, prostate specific membrane antigen (PSMA) on LNCaP cells (human, UniProt Q04609 1-750).
T1 construct: also called PSMA-expressing cells
Kind of experiment: saturation binding on whole LNCaP cells, detected with 125I goat anti-mouse IgG.
Description: Antibody binding assay: Saturation binding studies were performed on whole cells with purified anti-PSMA MAb followed by detection of cellbound MAb using ¹²⁵I-labeled goat anti-mouse IgG. Briefly, nearly confluent LNCaP cells were rinsed with ice-cold PBS and scraped in PBS containing the protease inhibitor cocktail described above. Cells (7.5×10⁶ per tube) were incubated with 100 μL of antibody diluted in complete RPMI to various concentrations for 1 h at room temperature. […] Following removal of unbound secondary antibody by centrifugation, the radioactivity associated with the cell pellet was determined using a gamma counter. Non-specific binding was determined in the presence of a 100-fold molar excess of the antibody antigen PSMA₄₉₀₋₅₀₀. […] For these experiments, a parallel sample in which the primary MAb was replaced by diluent served as a control for background binding of the secondary antibody and was less than 0.5%. Counts were analyzed by non-linear regression of total binding (Y) according to the law of mass action using the formula Y=Bmax*X/(Kd+X), where Bmax, Kd, and X represent the maximal binding, the concentration of ligand at half maximal binding, and the concentration of primary antibody, respectively. The ¹²⁵I-labeled goat anti-mouse IgG used in these experiments was radio-iodinated using the chloramine T method. Briefly, 10 μg of goat anti-mouse IgG whole molecule was incubated with 300 pmol of chloramine T and 90 μCi of [¹²⁵I] sodium iodide in a final volume of 25 μL containing 0.5 M sodium phosphate (pH 7.5) for 20 min at room temperature before quenching the reaction with 100 μL of sodium metabisulfite at 2.6 mg/mL in 0.5 M sodium phosphate buffer (pH 7.5). The labeled antibody was purified from free iodide by gel filtration on Sephadex G25. The amount of free iodide contaminating the labeled antibody was evaluated by ITLC-SG and never exceeded 1%.
B1 registered a Bmax of 5.1 pmol/mg and a Kd of 34.1 nM. The matching figures for B2: 2.8 pmol/mg and 14.7 nM. B3 registered a Bmax of 4.8 pmol/mg.

B4: the Bmax turned out to be 4.9 pmol/mg and the Kd worked out at 20.4 nM. For the molecule B5, the Bmax was 4.6 pmol/mg.
